In patent US20190119397A1 (ZIELBIO, published 2019):

Key:
[1] = molecular target: plectin-1 on the surface of cancer cells (Homo sapiens, UniProt Q15149 1-4684); test: cell-based or functional assay
[2] = molecular target: T1, recombinant human Sec8-His protein (human); test: in vitro binding assay on recombinant human Sec8-His protein (FIG. 3A)
T1 construct: also called recombinant human C-terminal portion of Plectin-1 protein; pET-10NC-Plec C term
T1 chain: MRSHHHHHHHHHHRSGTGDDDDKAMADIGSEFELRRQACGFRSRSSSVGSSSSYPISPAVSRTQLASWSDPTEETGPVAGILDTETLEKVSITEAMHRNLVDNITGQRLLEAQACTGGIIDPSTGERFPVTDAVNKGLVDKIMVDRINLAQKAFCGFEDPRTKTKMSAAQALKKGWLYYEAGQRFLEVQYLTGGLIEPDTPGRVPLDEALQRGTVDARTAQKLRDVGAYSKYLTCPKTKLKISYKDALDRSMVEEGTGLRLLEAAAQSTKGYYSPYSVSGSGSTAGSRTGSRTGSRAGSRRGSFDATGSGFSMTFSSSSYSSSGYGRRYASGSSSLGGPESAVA

Chain of plectin-1 on the surface of cancer cells (Q15149 whole entry): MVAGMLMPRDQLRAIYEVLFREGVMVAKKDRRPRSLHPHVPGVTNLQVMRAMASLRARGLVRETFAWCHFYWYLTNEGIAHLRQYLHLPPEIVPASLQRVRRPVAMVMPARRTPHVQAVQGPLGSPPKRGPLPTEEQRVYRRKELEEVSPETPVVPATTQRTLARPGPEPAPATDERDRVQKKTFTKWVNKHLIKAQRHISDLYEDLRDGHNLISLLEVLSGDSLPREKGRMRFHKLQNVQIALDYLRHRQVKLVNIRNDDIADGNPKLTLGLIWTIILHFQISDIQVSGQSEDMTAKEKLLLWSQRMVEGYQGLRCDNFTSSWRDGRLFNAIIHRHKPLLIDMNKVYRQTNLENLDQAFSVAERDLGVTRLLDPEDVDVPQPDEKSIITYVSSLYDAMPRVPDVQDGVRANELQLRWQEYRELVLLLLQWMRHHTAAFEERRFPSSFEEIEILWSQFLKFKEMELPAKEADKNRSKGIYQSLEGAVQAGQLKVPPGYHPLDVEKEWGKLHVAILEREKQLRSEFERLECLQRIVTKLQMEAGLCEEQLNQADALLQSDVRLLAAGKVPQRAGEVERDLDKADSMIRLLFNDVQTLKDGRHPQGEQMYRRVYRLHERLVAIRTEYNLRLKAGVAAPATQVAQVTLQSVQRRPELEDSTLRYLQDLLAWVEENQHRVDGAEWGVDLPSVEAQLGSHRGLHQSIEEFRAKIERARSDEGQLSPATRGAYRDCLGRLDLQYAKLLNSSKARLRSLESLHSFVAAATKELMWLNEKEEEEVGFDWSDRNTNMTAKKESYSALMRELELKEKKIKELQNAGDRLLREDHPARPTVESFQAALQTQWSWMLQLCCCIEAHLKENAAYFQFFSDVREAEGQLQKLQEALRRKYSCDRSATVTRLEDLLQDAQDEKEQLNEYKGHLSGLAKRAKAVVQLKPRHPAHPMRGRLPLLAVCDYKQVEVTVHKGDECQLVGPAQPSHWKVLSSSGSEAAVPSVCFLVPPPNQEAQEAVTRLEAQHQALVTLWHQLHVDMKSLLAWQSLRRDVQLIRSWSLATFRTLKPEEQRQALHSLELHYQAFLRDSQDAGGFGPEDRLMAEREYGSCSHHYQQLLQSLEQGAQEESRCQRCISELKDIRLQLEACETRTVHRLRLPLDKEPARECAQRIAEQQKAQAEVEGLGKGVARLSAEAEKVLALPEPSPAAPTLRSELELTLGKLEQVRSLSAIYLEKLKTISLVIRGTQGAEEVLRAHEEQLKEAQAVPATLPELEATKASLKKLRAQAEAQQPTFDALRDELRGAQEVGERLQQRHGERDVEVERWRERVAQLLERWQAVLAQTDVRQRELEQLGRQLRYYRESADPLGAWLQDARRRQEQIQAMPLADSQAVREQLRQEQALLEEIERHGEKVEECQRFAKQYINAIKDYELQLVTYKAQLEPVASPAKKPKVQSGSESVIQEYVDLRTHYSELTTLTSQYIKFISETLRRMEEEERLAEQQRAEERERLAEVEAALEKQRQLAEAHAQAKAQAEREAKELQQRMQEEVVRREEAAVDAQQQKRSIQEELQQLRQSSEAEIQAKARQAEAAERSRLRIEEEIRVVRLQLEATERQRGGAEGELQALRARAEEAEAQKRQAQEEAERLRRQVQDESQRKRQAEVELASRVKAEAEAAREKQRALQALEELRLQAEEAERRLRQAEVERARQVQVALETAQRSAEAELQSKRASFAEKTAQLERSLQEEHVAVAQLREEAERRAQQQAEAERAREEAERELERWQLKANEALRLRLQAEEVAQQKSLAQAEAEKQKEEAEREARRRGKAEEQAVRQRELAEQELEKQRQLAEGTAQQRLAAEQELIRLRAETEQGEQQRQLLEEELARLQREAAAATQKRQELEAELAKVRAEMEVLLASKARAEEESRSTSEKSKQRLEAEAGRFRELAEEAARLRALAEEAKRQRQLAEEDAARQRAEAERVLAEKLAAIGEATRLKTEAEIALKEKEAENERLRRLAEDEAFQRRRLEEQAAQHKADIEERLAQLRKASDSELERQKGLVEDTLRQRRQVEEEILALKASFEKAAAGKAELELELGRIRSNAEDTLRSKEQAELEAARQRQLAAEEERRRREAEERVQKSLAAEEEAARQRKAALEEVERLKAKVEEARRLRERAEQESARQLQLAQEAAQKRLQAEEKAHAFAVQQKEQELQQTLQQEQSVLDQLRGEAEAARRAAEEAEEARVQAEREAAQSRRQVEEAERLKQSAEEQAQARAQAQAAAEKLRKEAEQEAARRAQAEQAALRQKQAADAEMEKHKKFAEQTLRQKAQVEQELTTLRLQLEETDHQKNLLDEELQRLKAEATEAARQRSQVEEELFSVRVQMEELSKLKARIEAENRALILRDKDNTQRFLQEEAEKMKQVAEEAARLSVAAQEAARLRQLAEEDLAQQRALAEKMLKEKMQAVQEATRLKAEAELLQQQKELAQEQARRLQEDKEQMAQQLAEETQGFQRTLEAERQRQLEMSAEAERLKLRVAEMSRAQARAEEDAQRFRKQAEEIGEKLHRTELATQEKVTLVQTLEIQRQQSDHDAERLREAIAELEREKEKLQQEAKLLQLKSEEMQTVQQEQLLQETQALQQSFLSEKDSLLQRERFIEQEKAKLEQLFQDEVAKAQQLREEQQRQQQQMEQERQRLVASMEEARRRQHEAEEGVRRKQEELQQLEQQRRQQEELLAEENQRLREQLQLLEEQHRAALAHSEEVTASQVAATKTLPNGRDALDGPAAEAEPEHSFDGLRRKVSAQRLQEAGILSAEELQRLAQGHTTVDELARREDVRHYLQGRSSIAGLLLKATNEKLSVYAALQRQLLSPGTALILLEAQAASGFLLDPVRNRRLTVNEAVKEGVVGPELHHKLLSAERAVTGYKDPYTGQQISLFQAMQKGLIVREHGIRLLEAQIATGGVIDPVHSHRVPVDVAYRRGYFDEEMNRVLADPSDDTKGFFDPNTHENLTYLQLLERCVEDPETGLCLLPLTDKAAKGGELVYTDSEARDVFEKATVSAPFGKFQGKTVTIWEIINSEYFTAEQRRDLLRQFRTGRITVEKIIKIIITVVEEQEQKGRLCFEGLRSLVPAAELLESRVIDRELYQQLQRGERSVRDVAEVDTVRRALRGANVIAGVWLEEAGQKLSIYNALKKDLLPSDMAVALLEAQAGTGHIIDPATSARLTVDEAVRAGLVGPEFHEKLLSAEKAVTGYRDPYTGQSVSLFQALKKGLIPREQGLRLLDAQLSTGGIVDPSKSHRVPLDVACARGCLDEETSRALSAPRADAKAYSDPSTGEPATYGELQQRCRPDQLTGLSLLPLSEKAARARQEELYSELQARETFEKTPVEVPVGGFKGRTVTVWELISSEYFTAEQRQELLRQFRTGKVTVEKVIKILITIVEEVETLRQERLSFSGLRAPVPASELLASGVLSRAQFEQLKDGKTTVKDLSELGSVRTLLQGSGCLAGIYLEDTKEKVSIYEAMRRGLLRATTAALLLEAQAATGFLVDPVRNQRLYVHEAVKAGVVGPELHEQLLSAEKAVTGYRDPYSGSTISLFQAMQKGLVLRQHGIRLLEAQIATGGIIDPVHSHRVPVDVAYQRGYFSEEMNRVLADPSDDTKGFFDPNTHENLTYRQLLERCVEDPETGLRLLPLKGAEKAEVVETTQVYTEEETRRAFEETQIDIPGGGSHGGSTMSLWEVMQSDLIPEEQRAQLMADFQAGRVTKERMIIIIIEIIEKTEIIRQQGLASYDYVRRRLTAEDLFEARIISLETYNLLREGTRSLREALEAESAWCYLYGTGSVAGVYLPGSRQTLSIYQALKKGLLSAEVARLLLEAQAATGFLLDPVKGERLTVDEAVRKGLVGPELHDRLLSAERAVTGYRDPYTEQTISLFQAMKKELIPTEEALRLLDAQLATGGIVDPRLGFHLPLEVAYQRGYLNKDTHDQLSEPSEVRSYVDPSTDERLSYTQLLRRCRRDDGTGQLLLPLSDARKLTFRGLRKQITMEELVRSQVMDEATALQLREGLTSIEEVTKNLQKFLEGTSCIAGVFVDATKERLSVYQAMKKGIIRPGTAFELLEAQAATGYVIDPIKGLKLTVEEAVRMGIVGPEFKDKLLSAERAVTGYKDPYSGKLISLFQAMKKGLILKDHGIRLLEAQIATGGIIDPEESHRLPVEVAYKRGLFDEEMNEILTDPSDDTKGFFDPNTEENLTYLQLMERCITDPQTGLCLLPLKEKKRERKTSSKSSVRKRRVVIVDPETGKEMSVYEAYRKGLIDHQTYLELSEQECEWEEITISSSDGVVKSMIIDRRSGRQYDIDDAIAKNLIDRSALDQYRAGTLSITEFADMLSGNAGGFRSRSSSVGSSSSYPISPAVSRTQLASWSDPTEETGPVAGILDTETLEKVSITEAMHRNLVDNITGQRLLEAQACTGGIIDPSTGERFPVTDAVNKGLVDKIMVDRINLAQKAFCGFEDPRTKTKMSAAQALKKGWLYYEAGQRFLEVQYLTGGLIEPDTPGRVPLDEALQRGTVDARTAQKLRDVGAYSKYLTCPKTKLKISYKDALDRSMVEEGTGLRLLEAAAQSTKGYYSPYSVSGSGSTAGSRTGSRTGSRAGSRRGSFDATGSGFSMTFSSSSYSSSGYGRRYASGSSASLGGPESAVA

Kd [2]: < 1 nM
B1: PAb1 (antibody, mouse IgG2b, kappa, V domains shown)
VH: QIQLVQSGPELKKPGETVKISCKASGYTFTDYSMHWVKQAPGKGLKWMGWINTETGEPTYADDFKGRFAFSLETSASTAYLQINNLKNEDTATYFCAPGGFAYWGQGTLVTVSA
VL: DIVMTQAAPSVPVTPGESVSISCRSSKSLLHSNGNTYLYWFLQRPGQSPQLLIYRMSNLASGVPDRFSGSGSGTAFTLRISRVEAEDVGVYYCMQHLEYPLTFGAGTKLELKR
notes: Mouse hybridoma monoclonal antibody; also called Plectin-1 mAb; Plectin-1mAb
Plectin-1mAb EC50 (nM): concentration of mAb that reduced cell viability by 50%, L3.6pl cells, 72 hours [1]: 34 nM | Plectin-1mAb EC50 (nM): concentration of mAb that reduced cell viability by 50%, OVCAR8 cells, 72 hours [1]: 63 nM | Plectin-1mAb EC50 (nM): concentration of mAb that reduced cell viability by 50%, SKOV3 cells, 72 hours [1]: 53 nM | Plectin-1mAb EC50 (nM): concentration of mAb that reduced cell viability by 50%, YapC cells, 72 hours [1]: 43 nM
